Test results as given in paper PMC6532428 (Circulation, 2019).

Molecular target: His-p65 fusion protein (UniProt Q04206 1-551)
Assay: pull-down

His-p65 fusion protein, sequence (Q04206 whole entry, the tested form may be a part): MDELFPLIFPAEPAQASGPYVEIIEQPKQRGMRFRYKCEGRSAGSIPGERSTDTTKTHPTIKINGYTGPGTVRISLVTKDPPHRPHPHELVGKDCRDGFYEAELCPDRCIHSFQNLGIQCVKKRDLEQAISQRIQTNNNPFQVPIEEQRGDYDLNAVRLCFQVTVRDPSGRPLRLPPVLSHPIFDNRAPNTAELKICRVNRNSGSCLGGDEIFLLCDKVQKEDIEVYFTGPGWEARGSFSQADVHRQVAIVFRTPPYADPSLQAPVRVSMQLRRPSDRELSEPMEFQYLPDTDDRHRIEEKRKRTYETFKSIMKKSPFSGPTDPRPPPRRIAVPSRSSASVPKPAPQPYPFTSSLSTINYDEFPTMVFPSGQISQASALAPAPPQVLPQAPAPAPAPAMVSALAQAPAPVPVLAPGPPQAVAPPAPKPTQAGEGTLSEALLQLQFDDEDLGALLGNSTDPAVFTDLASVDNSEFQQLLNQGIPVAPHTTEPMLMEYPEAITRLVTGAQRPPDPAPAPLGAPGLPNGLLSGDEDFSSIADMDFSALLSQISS

B1: GST-RhoE recombinant protein (natural protein, UniProt P61587 1-244, looked up)
chain: MKERRASQKLSSKSIMDPNQNVKCKIVVVGDSQCGKTALLHVFAKDCFPENYVPTVFENYTASFEIDTQRIELSLWDTSGSPYYDNVRPLSYPDSDAVLICFDISRPETLDSVLKKWKGEIQEFCPNTKMLLVGCKSDLRTDVSTLVELSNHRQTPVSYDQGANMAKQIGAATYIECSALQSENSVRDIFHVATLACVNKTNKNVKRNKSQRATKRISHMPSRPELSAVATDLRKDKAKSCTVM
- binding result: binds
